Measurements taken from the supplement of paper PMC9233669.
This sample holds only a part of the variants without activity.

Columns and labels:
biotinyl-Phe-oxazolone = test: self-aminoacylation, catalytic enhancement (BFO) (fold over background); higher = more active; k-Seq, kA / k0A0; sequences stand for … in GGGAAUGGAUCCACAUCUACGAAUUC…UUCACUGCAGACUUGACGAAGCUG
Outline: (§1)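 Catalytic enhancement equals the median kA over the uncatalyzed rate, the latter read from the low-activity peak of a bimodal Gaussian fit. Values of kA came from fitting each sequence's fraction reacted to a pseudo-first-order model, with 1000 bootstraps. Reacted RNA was captured with streptavidin and quantified by triplicate qPCR and Illumina sequencing after 90 minutes at room temperature with 2–1250 μM biotinyl-aminoacyl-oxazolone and 0.43 μM mutagenized RNA pools bearing a 21-nt variable region.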

biotinyl-Ile-oxazolone = test: self-aminoacylation, catalytic enhancement (BIO) (fold over background); higher = more active; k-Seq, kA / k0A0; sequences stand for … in GGGAAUGGAUCCACAUCUACGAAUUC…UUCACUGCAGACUUGACGAAGCUG
Outline: as §1

biotinyl-Met-oxazolone = test: self-aminoacylation, catalytic enhancement (BMO) (fold over background); higher = more active; k-Seq, kA / k0A0; sequences stand for … in GGGAAUGGAUCCACAUCUACGAAUUC…UUCACUGCAGACUUGACGAAGCUG
Outline: as §1

biotinyl-Val-oxazolone = test: self-aminoacylation, catalytic enhancement (BVO) (fold over background); higher = more active; k-Seq, kA / k0A0; sequences stand for … in GGGAAUGGAUCCACAUCUACGAAUUC…UUCACUGCAGACUUGACGAAGCUG
Outline: as §1

biotinyl-Leu-oxazolone = test: self-aminoacylation, catalytic enhancement (BLO) (fold over background); higher = more active; k-Seq, kA / k0A0; sequences stand for … in GGGAAUGGAUCCACAUCUACGAAUUC…UUCACUGCAGACUUGACGAAGCUG
Outline: as §1

biotinyl-Trp-oxazolone = test: self-aminoacylation, catalytic enhancement (BWO) (fold over background); higher = more active; k-Seq, kA / k0A0; sequences stand for … in GGGAAUGGAUCCACAUCUACGAAUUC…UUCACUGCAGACUUGACGAAGCUG
Outline: as §1

Row | Sequence | self-aminoacylation (biotinyl-Phe-oxazolone) | self-aminoacylation (biotinyl-Ile-oxazolone) | self-aminoacylation (biotinyl-Met-oxazolone) | self-aminoacylation (biotinyl-Val-oxazolone) | self-aminoacylation (biotinyl-Leu-oxazolone) | self-aminoacylation (biotinyl-Trp-oxazolone)
1 | AAGUUUGCUAAAAGUCGCGAG [Fam3.1 aminoacylation ribozyme variant] | 2.4 | 1.7 | 2.21 | 1.68 | 2.1 | 2.34
2 | AAGUUUGCUAAAAGUUGCAAG [Fam3.1 aminoacylation ribozyme variant] | 1.18 | 0.983 | 1.07 | 0.781 | 0.968 | 0.711
3 | AAGUUUGCUAACAGUCGCAAU [Fam3.1 aminoacylation ribozyme variant] | 0.994 | 1.13 | 1.22 | 0.959 | 0.968 | 1.58
4 | AAGUUUGCUAACAGUCGCACG [Fam3.1 aminoacylation ribozyme variant] | 1.65 | 0.921 | 1.19 | 1.18 | 0.745 | 0.973
5 | AAGUUUGCUAACAGUCUCAAG [Fam3.1 aminoacylation ribozyme variant] | 4.44 | 0.979 | 0.713 | 0.694 | 0.733 | 1.64
6 | AAGUUUGCUAAGAAUCGCAAG [Fam3.1 aminoacylation ribozyme variant] | 0.824 | 0.583 | 0.503 | 0.58 | 0.521 | 0.588
7 | AAGUUUGCUAAUAAUCGCAAA [Fam3.1 aminoacylation ribozyme variant] | 0.86 | 1.2 | 1.14 | 1.14 | 1.09 | 1.02
8 | AAGUUUGCUAAUAAUUGCAAG [Fam3.1 aminoacylation ribozyme variant] | 1.1 | 0.961 | 0.862 | 0.857 | 0.877 | 0.832
9 | AAGUUUGCUAAUACUCGCAAA [Fam3.1 aminoacylation ribozyme variant] | 1.26 | 1.2 | 1.22 | 1.05 | 0.837 | 1.71
10 | AAGUUUGCUAAUACUCUCAAG [Fam3.1 aminoacylation ribozyme variant] | 0.931 | 0.693 | 0.512 | 0.721 | 0.63 | 0.527
11 | AAGUUUGCUAAUAGACACAAG [Fam3.1 aminoacylation ribozyme variant] | 1.23 | 0.828 | 0.665 | 0.916 | 0.654 | 0.797
12 | AAGUUUGCUAAUAGAGGCAAG [Fam3.1 aminoacylation ribozyme variant] | 0.955 | 0.762 | 0.692 | 0.733 | 0.554 | 0.788
13 | AAGUUUGCUAAUAGCCGCAUG [Fam3.1 aminoacylation ribozyme variant] | 2 | 1.07 | 1.12 | 1.1 | 1.19 | 1.54
14 | AAGUUUGCUAAUAGCGGCAAG [Fam3.1 aminoacylation ribozyme variant] | 0.964 | 0.668 | 0.508 | 0.646 | 0.575 | 0.924
15 | AAGUUUGCUAAUAGGCGCGAG [Fam3.1 aminoacylation ribozyme variant] | 1.2 | 1.16 | 0.819 | 0.9 | 0.954 | 1.42
16 | AAGUUUGCUAAUAGGCUCAAG [Fam3.1 aminoacylation ribozyme variant] | 0.973 | 0.664 | 0.493 | 0.774 | 0.715 | 0.535
17 | AAGUUUGCUAAUAGUAGCAAG [Fam3.1 aminoacylation ribozyme variant] | 1.22 | 1.04 | 1.02 | 0.993 | 0.95 | 0.96
18 | AAGUUUGCUAAUAGUAGCUAG [Fam3.1 aminoacylation ribozyme variant] | 1.05 | 0.958 | 1.28 | 0.988 | 0.639 | 1.14
19 | AAGUUUGCUAAUAGUAUCAAG [Fam3.1 aminoacylation ribozyme variant] | 1.64 | 1 | 1.22 | 0.928 | 0.714 | 0.998
20 | AAGUUUGCUAAUAGUCACAAG [Fam3.1 aminoacylation ribozyme variant] | 12.3 | 1.47 | 1.45 | 1.35 | 1.21 | 4.08
21 | AAGUUUGCUAAUAGUCACAAU [Fam3.1 aminoacylation ribozyme variant] | 1.14 | 1.18 | 1.18 | 1.19 | 0.82 | 1.11
22 | AAGUUUGCUAAUAGUCAGAAG [Fam3.1 aminoacylation ribozyme variant] | 2.61 | 0.943 | 1.01 | 0.937 | 0.808 | 2.22

Row | Sequence | self-aminoacylation (biotinyl-Phe-oxazolone) | self-aminoacylation (biotinyl-Ile-oxazolone) | self-aminoacylation (biotinyl-Met-oxazolone) | self-aminoacylation (biotinyl-Val-oxazolone) | self-aminoacylation (biotinyl-Leu-oxazolone) | self-aminoacylation (biotinyl-Trp-oxazolone)
23 | AAGUUUGCUAAUAGUCCCACG [Fam3.1 aminoacylation ribozyme variant] | 0.69 | 0.727 | 0.931 | 0.679 | 0.838 | 0.714
24 | AAGUUUGCUAAUAGUCCCAUG [Fam3.1 aminoacylation ribozyme variant] | 0.885 | 0.978 | 0.887 | 1.13 | 0.89 | 1.19
25 | AAGUUUGCUAAUAGUCCCCAG [Fam3.1 aminoacylation ribozyme variant] | 1.27 | 1 | 1.01 | 0.901 | 0.928 | 1.69
26 | AAGUUUGCUAAUAGUCGAAAG [Fam3.1 aminoacylation ribozyme variant] | 17.9 | 1.38 | 1.47 | 1.22 | 1.14 | 5.4
27 | AAGUUUGCUAAUAGUCGCAAU [Fam3.1 aminoacylation ribozyme variant] | 1.68 | 1.42 | 1.25 | 1.26 | 1.19 | 1.22
28 | AAGUUUGCUAAUAGUCGCAUA [Fam3.1 aminoacylation ribozyme variant] | 1.58 | 1.21 | 0.936 | 1.22 | 0.954 | 1.23
29 | AAGUUUGCUAAUAGUCGCGAC [Fam3.1 aminoacylation ribozyme variant] | 1.05 | 0.944 | 1 | 0.909 | 0.907 | 1.19
30 | AAGUUUGCUAAUAGUCGCGGG [Fam3.1 aminoacylation ribozyme variant] | 19.6 | 4.43 | 4.13 | 3.77 | 4.5 | 4.82
31 | AAGUUUGCUAAUAGUCGCUAA [Fam3.1 aminoacylation ribozyme variant] | 1.96 | 1.33 | 1.13 | 1.21 | 1.2 | 1.53
32 | AAGUUUGCUAAUAGUCGCUCG [Fam3.1 aminoacylation ribozyme variant] | 0.809 | 0.706 | 0.815 | 0.657 | 0.647 | 0.853
33 | AAGUUUGCUAAUAGUCGUUAG [Fam3.1 aminoacylation ribozyme variant] | 2.27 | 0.822 | 0.676 | 1.07 | 0.801 | 1.05
34 | AAGUUUGCUAAUAGUCUAAAG [Fam3.1 aminoacylation ribozyme variant] | 5.62 | 1.28 | 0.959 | 1.28 | 0.882 | 1.9
35 | AAGUUUGCUAAUAGUCUGAAG [Fam3.1 aminoacylation ribozyme variant] | 3.77 | 1.01 | 0.971 | 1.07 | 0.996 | 1.34
36 | AAGUUUGCUAAUAGUCUUAAG [Fam3.1 aminoacylation ribozyme variant] | 25.7 | 1.16 | 1.24 | 1.11 | 1.11 | 6.3
37 | AAGUUUGCUAAUAGUGGCAAC [Fam3.1 aminoacylation ribozyme variant] | 0.826 | 0.805 | 0.737 | 0.822 | 0.783 | 0.575
38 | AAGUUUGCUAAUAGUGGCAUG [Fam3.1 aminoacylation ribozyme variant] | 1.1 | 0.823 | 0.821 | 0.772 | 0.754 | 0.862
39 | AAGUUUGCUAAUAGUGGGAAG [Fam3.1 aminoacylation ribozyme variant] | 1.48 | 0.841 | 0.971 | 1.03 | 0.876 | 0.598
40 | AAGUUUGCUAAUAGUUGCAAU [Fam3.1 aminoacylation ribozyme variant] | 1.25 | 1.26 | 1.15 | 1.31 | 0.88 | 1.29
41 | AAGUUUGCUAAUAGUUGCACG [Fam3.1 aminoacylation ribozyme variant] | 1.38 | 1.11 | 1.31 | 1.14 | 1.1 | 1.75
42 | AAGUUUGCUAAUAGUUGCAUG [Fam3.1 aminoacylation ribozyme variant] | 1.14 | 0.96 | 0.831 | 0.934 | 1.14 | 0.685
43 | AAGUUUGCUAAUAGUUGUAAG [Fam3.1 aminoacylation ribozyme variant] | 2.23 | 1.29 | 1.48 | 1.28 | 1.12 | 1.55
